# From article PMC5389604
# Molecular target: T1, RarA (MgsA) (Escherichia coli, UniProt P0AAZ4 1-447)
# T1 sequence: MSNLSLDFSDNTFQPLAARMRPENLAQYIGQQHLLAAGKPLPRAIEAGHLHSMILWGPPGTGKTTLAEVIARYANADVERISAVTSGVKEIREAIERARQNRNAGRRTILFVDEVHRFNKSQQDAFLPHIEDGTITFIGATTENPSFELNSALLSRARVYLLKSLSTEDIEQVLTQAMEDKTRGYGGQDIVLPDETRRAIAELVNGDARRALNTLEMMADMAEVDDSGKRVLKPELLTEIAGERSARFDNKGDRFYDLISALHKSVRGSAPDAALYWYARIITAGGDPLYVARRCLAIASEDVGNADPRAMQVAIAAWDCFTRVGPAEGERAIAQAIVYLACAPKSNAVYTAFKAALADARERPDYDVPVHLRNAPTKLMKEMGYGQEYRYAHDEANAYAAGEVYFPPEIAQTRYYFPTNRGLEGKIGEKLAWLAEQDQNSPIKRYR
# Assay: fluorescence polarization
binder,measurement,value
ACACAGAAGGAGACGG (ssDNA) [oANP031_F 16 nt ssDNA],Kd,890 ± 28 nM
